Test results as given in patent publication US20200055939A1 (Genentech, published 2020).

T1: P296A
T1 construct: % monomer 92.3; also called MICA*008.mIgG2a P296A
T1 chain: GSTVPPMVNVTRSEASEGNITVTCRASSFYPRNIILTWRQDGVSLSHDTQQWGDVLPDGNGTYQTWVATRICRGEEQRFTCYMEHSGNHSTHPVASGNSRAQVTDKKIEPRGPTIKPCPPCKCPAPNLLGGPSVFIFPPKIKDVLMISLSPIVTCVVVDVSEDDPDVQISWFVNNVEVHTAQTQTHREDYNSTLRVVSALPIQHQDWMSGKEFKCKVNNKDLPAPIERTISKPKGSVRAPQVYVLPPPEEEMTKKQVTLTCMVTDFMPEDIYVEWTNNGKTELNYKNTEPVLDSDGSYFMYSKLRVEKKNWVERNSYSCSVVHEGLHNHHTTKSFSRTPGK

T2: D249A
T2 construct: % monomer 86.64; also called MICA*008.mIgG2a D249A
T2 chain: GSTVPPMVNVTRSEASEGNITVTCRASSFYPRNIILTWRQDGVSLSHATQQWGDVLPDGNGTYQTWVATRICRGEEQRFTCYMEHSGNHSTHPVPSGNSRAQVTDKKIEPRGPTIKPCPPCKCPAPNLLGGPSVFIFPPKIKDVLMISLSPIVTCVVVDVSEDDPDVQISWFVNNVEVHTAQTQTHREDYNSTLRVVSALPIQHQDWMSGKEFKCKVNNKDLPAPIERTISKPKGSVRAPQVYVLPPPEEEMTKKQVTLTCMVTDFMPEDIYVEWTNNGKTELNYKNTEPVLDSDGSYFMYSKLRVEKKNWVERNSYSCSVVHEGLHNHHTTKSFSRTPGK

T3: E276A
T3 construct: % monomer 86.14; also called MICA*008.mIgG2a E276A
T3 chain: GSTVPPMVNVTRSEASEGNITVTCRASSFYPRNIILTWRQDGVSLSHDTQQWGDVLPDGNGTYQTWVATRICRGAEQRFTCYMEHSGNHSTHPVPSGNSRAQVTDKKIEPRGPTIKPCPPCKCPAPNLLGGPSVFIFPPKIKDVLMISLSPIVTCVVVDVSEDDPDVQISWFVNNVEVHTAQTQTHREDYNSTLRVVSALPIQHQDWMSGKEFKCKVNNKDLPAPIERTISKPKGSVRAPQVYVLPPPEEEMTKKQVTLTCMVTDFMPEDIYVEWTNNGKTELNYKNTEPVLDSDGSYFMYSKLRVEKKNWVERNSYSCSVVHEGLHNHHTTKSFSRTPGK

T4: I236A
T4 construct: % monomer 92.49; also called MICA*008.mIgG2a I236A
T4 chain: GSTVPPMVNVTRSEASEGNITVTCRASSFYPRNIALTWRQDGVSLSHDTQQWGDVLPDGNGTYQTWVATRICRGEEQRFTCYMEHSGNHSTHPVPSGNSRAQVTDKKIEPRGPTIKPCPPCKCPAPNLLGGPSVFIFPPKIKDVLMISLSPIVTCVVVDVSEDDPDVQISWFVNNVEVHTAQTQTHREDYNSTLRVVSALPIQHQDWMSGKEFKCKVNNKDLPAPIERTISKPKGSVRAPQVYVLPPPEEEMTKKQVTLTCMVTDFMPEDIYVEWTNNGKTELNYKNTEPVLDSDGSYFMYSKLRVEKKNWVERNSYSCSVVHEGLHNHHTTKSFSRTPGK

T5: Q278A
T5 construct: % monomer 92.32; also called MICA*008.mIgG2a Q278A
T5 chain: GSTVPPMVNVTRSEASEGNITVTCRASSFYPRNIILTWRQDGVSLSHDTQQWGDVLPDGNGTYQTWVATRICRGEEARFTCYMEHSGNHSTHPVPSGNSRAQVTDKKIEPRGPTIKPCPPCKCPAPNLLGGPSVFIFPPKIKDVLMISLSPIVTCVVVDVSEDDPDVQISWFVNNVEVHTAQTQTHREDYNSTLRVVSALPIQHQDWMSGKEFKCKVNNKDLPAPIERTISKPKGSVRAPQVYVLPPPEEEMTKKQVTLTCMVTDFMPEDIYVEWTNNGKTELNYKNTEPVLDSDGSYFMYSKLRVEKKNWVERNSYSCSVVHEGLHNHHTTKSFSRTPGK

T6: E277A
T6 construct: % monomer 81.58; also called MICA*008.mIgG2a E277A
T6 chain: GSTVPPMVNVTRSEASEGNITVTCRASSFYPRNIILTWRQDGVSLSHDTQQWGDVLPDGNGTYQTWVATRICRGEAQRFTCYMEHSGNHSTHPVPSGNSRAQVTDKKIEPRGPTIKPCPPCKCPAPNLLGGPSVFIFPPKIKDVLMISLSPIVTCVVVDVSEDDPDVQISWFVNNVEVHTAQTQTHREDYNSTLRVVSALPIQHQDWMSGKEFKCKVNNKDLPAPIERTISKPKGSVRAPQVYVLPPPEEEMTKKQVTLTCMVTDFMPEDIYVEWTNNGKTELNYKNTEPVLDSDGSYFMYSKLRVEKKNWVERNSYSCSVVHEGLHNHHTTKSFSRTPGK

T7: S247A
T7 construct: % monomer 94.87; also called MICA*008.mIgG2a S247A
T7 chain: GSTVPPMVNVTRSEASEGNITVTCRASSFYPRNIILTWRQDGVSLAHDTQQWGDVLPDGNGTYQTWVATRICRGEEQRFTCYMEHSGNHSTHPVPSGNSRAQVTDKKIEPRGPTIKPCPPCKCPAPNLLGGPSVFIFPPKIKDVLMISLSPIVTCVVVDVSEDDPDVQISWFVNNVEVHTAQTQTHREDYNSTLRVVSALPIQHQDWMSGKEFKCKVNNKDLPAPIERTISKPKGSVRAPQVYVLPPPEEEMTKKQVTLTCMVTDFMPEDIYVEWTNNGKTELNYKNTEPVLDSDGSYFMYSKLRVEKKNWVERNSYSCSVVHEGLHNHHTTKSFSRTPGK


Key:
Assay in all cases: SPR, Fab over captured MICA*008.mIgG2a Ala variant; KD relative to wild type
P296A = molecular target: T1, P296A
D249A = molecular target: T2, D249A
E276A = molecular target: T3, E276A
I236A = molecular target: T4, I236A
Q278A = molecular target: T5, Q278A
E277A = molecular target: T6, E277A
S247A = molecular target: T7, S247A

Binder	fold-decrease in affinity (P296A)	fold-decrease in affinity (D249A)	fold-decrease in affinity (E276A)	fold-decrease in affinity (I236A)	fold-decrease in affinity (Q278A)	fold-decrease in affinity (E277A)	fold-decrease in affinity (S247A)
7D4.6 Fab (Fab, V domains shown) VH: DVQLQESGPGLVKPSQSLSLTCTVTGYSITSDYAWNWIRQFPRNKLEWMGYINYSGTTNYNPSLKSRISITRDTSKNQFFLQLISVTTEDTATYYCSYYRYDGAWFPYWGQGTLVTVSA VL: DIQMTQSPASLSASVGETVTITCRASGNIHNYLAWYQQKQGKSPQLLVYNAIMLADGVPSRFSASGSGTQYSLKINSLQPEDFGSYYCQHFWSFPLTFGAGTKVEIK	0.7	0.7	0.7	1.2	4.9	1.3	0.8
2E5.2.3 Fab (Fab, V domains shown) VH: QGQMQQSGAELVKPGASVKLSCKTSGFTFSDNYISWLKQKPGQSLEWIAWIYAGTGGTSYNQKFTAKAQLTVDTSSSTAYMQFSSLTTEDSAIYYCARHDYYGTSGAWFAYWGQGTLVTVSA VL: DVLMTQTPLSLPVSLGDQASLSCRSSQNIVHINGNTYLEWYLQKPGQSPKLLIYKVSNRFSGVPDRFSGSGSGTDFTLKISRVEAEDLGVYYCFQGSHVPWTFGGGTKVEIK	0.6	1	1.2	0.9	1	1.1	1.1

The remaining lines, values ahead:

fold-decrease in affinity (P296A)	fold-decrease in affinity (D249A)	fold-decrease in affinity (E276A)	fold-decrease in affinity (I236A)	fold-decrease in affinity (Q278A)	fold-decrease in affinity (E277A)	fold-decrease in affinity (S247A)	Binder
1	0.8	4.3	1.4	0.5	2.7	0.9	6F8.7 Fab (Fab, V domains shown) VH: DVQLQGSGPGLVKPSQSLSLTCSVTGYSITNDYYWNWIRQFPGNKLEWMGFISFGGSNNYNPSLKNRISITRDTSKNQFFLKLSSVTTEDTATYYCARYDGRGAWFAYWAQGTLVTVSA VL: DIQMTQSPASLSASVGETVTITCRASGNIHNYLAWYQQKQGKSPQLLVYDAITLADGVPSRFSGSGSGTQYSLKINSLQPEDFGNYYCQHFWSFPLTFGAGTKVEIK
1.9		22		0.7	1.9	0.2	1D5 Fab (Fab, V domains shown, Expressed in E. coli as chimera of murine variable and human constant domains; not shown: human IgG1 CH1 constant domain; human kappa CL constant domain) VH: EIQLQQSGPELVKPGASVKVSCKASGYAFTSQNIYWVKQSHGKSLEWIGYIEPYNVVPMYNPKFKGKATLTVDKSSSSAYIHLNSLTSEDSAIYYCARSGSSNFDYWGQGTTLTVSS VL: EIILTQSPTTMAASPGEKITITCSASSSISSHYLHWYQQKSGFSPKLLIYRTSNLASGVPARFSGSGSGTSYSLTIGTMEAEDVATYYCQQGSSLPLTFGAGTKVEIK
